The source of these data is the Immune Epitope Database (IEDB).

For one assay, the target named is HLA-A*03:01. Description: IEDB peptide-MHC binding, purified MHC/direct/fluorescence; filed as Kd, often an IC50 or EC50 that approximates it; ≥ and ≤ were set here for values at or beyond the usual limits of such assays.
The target in another assay is HLA-A*68:02. Described as above.
Assay [1] deals with HLA-A*26:01. Described as above. Particulars: source organism: Sudan ebolavirus - Uganda (2000).
Another assay has as its target HLA-A*24:03. The description is as above.
Another assay concerns the target HLA-A*02:16. The description is as above.
For the next assay, the target named is HLA-A*23:01. Described as above.
For a further assay, the target named is HLA-A*02:19. Described as above.
A further assay has as its target HLA-A*02:12. The description is as above.
The target in a further assay is HLA-A*02:11. The description is as above.
For another assay, the target named is HLA-A*02:03. The assay is described as above.
A further assay deals with HLA-B*27:03. Kind of assay: IEDB peptide-MHC binding, purified MHC/competitive/fluorescence; filed as Kd, often an IC50 or EC50 that approximates it; ≥ and ≤ were set here for values at or beyond the usual limits of such assays.
In a further assay the target is HLA-B*18:01. The assay is described as above.
The target of the next assay is HLA-B*39:01. Described as above.
The target in the next assay is HLA-B*46:01. The description is as above.
The next assay deals with HLA-B*57:01. Described as above.
The next assay deals with HLA-A*69:01. The assay is described as above.
The next assay addresses HLA-A*02:01. The assay is described as above.
The target in another assay is HLA-A*29:02. Description: IEDB peptide-MHC binding, purified MHC/direct/fluorescence; filed as Kd, often an IC50 or EC50 that approximates it; ≥ and ≤ were set here for values at or beyond the usual limits of such assays.
The target in the next assay is HLA-B*07:02. Described as above. Particulars: source organism: Zaire ebolavirus.
Assay [2] concerns the target HLA-A*26:01. Kind of assay: IEDB peptide-MHC binding, purified MHC/competitive/fluorescence; filed as Kd, often an IC50 or EC50 that approximates it; ≥ and ≤ were set here for values at or beyond the usual limits of such assays.
In another assay the target is HLA-B*15:01. The assay is described as above.
For the next assay, the target named is HLA-B*15:17. Described as above.
Another assay concerns the target HLA-B*51:01. The assay is described as above.
For a further assay, the target named is HLA-B*35:01. Described as above. Particulars: source organism: Zaire ebolavirus.
The target in another assay is HLA-A*11:01. Kind of assay: IEDB peptide-MHC binding, purified MHC/direct/fluorescence; filed as Kd, often an IC50 or EC50 that approximates it; ≥ and ≤ were set here for values at or beyond the usual limits of such assays.
Another assay deals with HLA-A*31:01. Description: IEDB peptide-MHC binding, purified MHC/competitive/fluorescence; filed as Kd, often an IC50 or EC50 that approximates it; ≥ and ≤ were set here for values at or beyond the usual limits of such assays. Particulars: source organism: Orthohantavirus tulaense.
Where [3] appears, read: source organism: Zaire ebolavirus.
Setting [4] is: source organism: Ravn virus - Ravn, Kenya, 1987.
The mark [5] stands for this setting: source organism: Bacillus cereus NVH0597-99.
Where [6] appears, read: source organism: Bacillus thuringiensis serovar israelensis ATCC 35646.
Setting [7] is: source organism: Orthohantavirus tulaense.
Setting [8] is: source organism: Vibrio vulnificus CMCP6.
The mark [9] stands for this setting: source organism: Vibrio vulnificus YJ016.

pKd: −log10 of the molar value. Bounds are passed on as bounds.

As a reminder, the pKd is the negative decadic logarithm of the Kd, by convention in mol/L. Higher therefore signals a low Kd. On to ATAAATEAY, for which the pKd in the assay with HLA-A*03:01 (setting [3]) was not above 4.70; with HLA-A*68:02 (setting [3]) it was not above 4.70; with HLA-A*26:01 [1] it was 6.66; with HLA-A*24:03 (setting [3]), not above 4.70; with HLA-A*02:16 (setting [3]), not above 4.70; in the assay with HLA-A*23:01 (setting [3]), not above 4.70. Besides, the pKd with HLA-A*02:19 (setting [3]), with HLA-A*02:12 (setting [3]), with HLA-A*02:11 (setting [3]), with HLA-A*02:03 (setting [3]), in the assay with HLA-B*27:03 (setting [3]) and with HLA-B*18:01 (setting [3]) was not above 4.70 each time. For the same sequence, the pKd in the assay with HLA-B*39:01 (setting [3]), with HLA-B*46:01 (setting [3]), with HLA-B*57:01 (setting [3]), with HLA-A*69:01 (setting [3]) and with HLA-A*02:01 (setting [3]) was not above 4.70 throughout.

Turning to FPSNMMVVT, the pKd with HLA-A*29:02 (setting [4]), in the assay with HLA-A*03:01 (setting [4]), with HLA-A*68:02 (setting [4]), with HLA-A*24:03 (setting [4]), with HLA-A*02:16 (setting [4]) and with HLA-A*23:01 (setting [4]) was not above 4.70 each time. For the same sequence, the pKd is not above 4.70 with HLA-A*02:19 (setting [4]); not above 4.70 with HLA-A*02:12 (setting [4]); not above 4.70 with HLA-A*02:11 (setting [4]); not above 4.70 with HLA-A*02:03 (setting [4]); 6.12 in the assay with HLA-B*07:02; not above 4.70 with HLA-B*27:03 (setting [3]). Besides, the pKd in the assay with HLA-A*26:01 [2] (setting [3]), in the assay with HLA-B*15:01 (setting [3]), with HLA-B*18:01 (setting [3]), with HLA-B*15:17 (setting [3]), in the assay with HLA-B*39:01 (setting [3]) and with HLA-B*46:01 (setting [3]) was not above 4.70 each time. The pKd is not above 4.70 with HLA-B*51:01 (setting [3]); not above 4.70 with HLA-B*57:01 (setting [3]); not above 4.70 in the assay with HLA-A*69:01 (setting [3]); not above 4.70 with HLA-A*02:01 (setting [3]); 9.40 with HLA-B*35:01.

Regarding GLSFLNPEK, the pKd with HLA-A*03:01 (source organism: Sudan ebolavirus - Maleo (1979)) is 6.82; in the assay with HLA-A*68:02 (setting [4]), not above 4.70; in the assay with HLA-A*24:03 (setting [4]), not above 4.70; in the assay with HLA-A*23:01 (setting [4]), not above 4.70; in the assay with HLA-A*02:19 (setting [4]), not above 4.70; with HLA-A*02:12 (setting [4]), not above 4.70. Also, the pKd in the assay with HLA-A*02:03 (setting [4]), with HLA-B*27:03 (setting [3]), with HLA-A*26:01 [2] (setting [3]), with HLA-B*15:01 (setting [3]), with HLA-B*18:01 (setting [3]) and in the assay with HLA-B*15:17 (setting [3]) was not above 4.70 each time. The pKd in the assay with HLA-B*39:01 (setting [3]), in the assay with HLA-B*46:01 (setting [3]), with HLA-B*51:01 (setting [3]), in the assay with HLA-B*57:01 (setting [3]) and with HLA-A*69:01 (setting [3]) was not above 4.70 throughout.

ITMYVAFEQ: the pKd with HLA-A*29:02 (setting [5]), with HLA-A*03:01 (setting [5]), with HLA-A*68:02 (setting [5]), in the assay with HLA-A*24:03 (setting [5]), in the assay with HLA-A*11:01 (setting [5]) and in the assay with HLA-A*02:16 (setting [5]) was not above 4.70 throughout. For the same sequence, the pKd with HLA-A*23:01 (setting [5]), with HLA-A*02:19 (setting [5]), with HLA-A*02:12 (setting [5]), in the assay with HLA-A*02:11 (setting [5]), with HLA-A*02:03 (setting [5]) and in the assay with HLA-B*27:03 (setting [6]) was not above 4.70 each time. For the same sequence, the pKd with HLA-A*26:01 [2] (setting [6]), with HLA-B*18:01 (setting [6]), with HLA-B*15:17 (setting [6]), with HLA-B*39:01 (setting [6]), with HLA-B*46:01 (setting [6]) and with HLA-B*51:01 (setting [6]) was not above 4.70 each time. Besides, the pKd with HLA-B*57:01 (setting [6]), with HLA-A*69:01 (setting [6]) and with HLA-A*02:01 (setting [6]) was not above 4.70 each time.

SLMSRVVYK: the pKd with HLA-A*29:02 (setting [7]) was not above 4.70; with HLA-A*03:01 (source organism: Orthohantavirus prospectense), 7.11; with HLA-A*68:02 (setting [7]), not above 4.70; with HLA-A*24:03 (setting [7]), not above 4.70; in the assay with HLA-A*02:16 (setting [7]), not above 4.70; in the assay with HLA-A*23:01 (setting [7]) it was not above 4.70. For the same sequence, the pKd in the assay with HLA-A*02:19 (setting [7]) was not above 4.70; with HLA-A*02:12 (setting [7]), not above 4.70; with HLA-A*02:03 (setting [7]), not above 4.70; with HLA-A*31:01, 8.51; with HLA-B*27:03 (setting [7]), not above 4.70; with HLA-A*26:01 [2] (setting [7]) it was not above 4.70. The pKd with HLA-B*15:01 (setting [7]), with HLA-B*18:01 (setting [7]), in the assay with HLA-B*15:17 (setting [7]), with HLA-B*39:01 (setting [7]), in the assay with HLA-B*46:01 (setting [7]) and with HLA-B*51:01 (setting [7]) was not above 4.70 in each case. Besides, the pKd in the assay with HLA-B*57:01 (setting [7]) and in the assay with HLA-A*69:01 (setting [7]) was not above 4.70 in each case.

As for SVMSTFFWE, the pKd with HLA-A*29:02 (setting [8]) was not above 4.70; with HLA-A*03:01 (setting [8]), not above 4.70; in the assay with HLA-A*68:02 (setting [8]), not above 4.70; in the assay with HLA-A*24:03 (setting [8]), not above 4.70; with HLA-A*11:01 (setting [8]) it was 6.46; in the assay with HLA-A*02:16 (setting [8]) it was not above 4.70. The pKd in the assay with HLA-A*23:01 (setting [8]), with HLA-A*02:19 (setting [8]), in the assay with HLA-A*02:12 (setting [8]), in the assay with HLA-A*02:11 (setting [8]), with HLA-A*02:03 (setting [8]) and with HLA-B*27:03 (setting [9]) was not above 4.70 in each case. Further, the negative logarithm of the Kd (pKd) with HLA-A*26:01 [2] (setting [9]), in the assay with HLA-B*18:01 (setting [9]), with HLA-B*15:17 (setting [9]), in the assay with HLA-B*39:01 (setting [9]), with HLA-B*46:01 (setting [9]) and in the assay with HLA-B*51:01 (setting [9]) was not above 4.70 throughout. Besides, the pKd with HLA-B*57:01 (setting [9]), with HLA-A*69:01 (setting [9]) and with HLA-A*02:01 (setting [9]) was not above 4.70 in each case.
